Test results published in patent publication US7148338B2, “Nucleic acids encoding dipeptidyl peptidases” (The University of Sydney, priority 1999, dated 2006).

B1: DPPIV: dipeptidyl peptidase IV, comparator enzyme (protein)
chain: MKTPWKVLLGLLGAAALVTIITVPVVLLNKGTDDATADSRKTYTLTDYLKNTYRLKLYSLRWISDHEYLYKQENNILVFNAEYGNSSVFLENSTFDEFGHSINDYSISPDGQFILLEYNYVKQWRHSYTASYDIYDLNKRQLITEERIPNNTQWVTWSPVGHKLAYVWNNDIYVKIEPNLPSYRITWTGKEDIIYNGITDWVYEEEVFSAYSALWWSPNGTFLAYAQFNDTEVPLIEYSFYSDESLQYPKTVRVPYPKAGAVNPTVKFFVVNTDSLSSVTNATSIQITAPASMLIGDHYLCDVTWATQERISLQWLRRIQNYSVMDICDYDESSGRWNCLVARQHIEMSTTGWVGRFRPSEPHFTLDGNSFYKIISNEEGYRHICYFQIDKKDCTFITKGTWEVIGIEALTSDYLYYISNEYKGMPGGRNLYKIQLSDYTKVTCLSCELNPERCQYYSVSFSKEAKYYQLRCSGPGLPLYTLHSSVNDKGLRVLEDNSALDKMLQNVQMPSKKLDFIILNETKFWYQMILPPHFDKSKKYPLLLDVYAGPCSQKADTVFRLNWATYLASTENIIVASFDGRGSGYQGDKIMHAINRRLGTFEVEDQIEAARQFSKMGFVDNKRIAIWGWSYGGYVTSMVLGSGSGVFKCGIAVAPVSRWEYYDSVYTERYMGLPTPEDNLDHYRNSTVMSRAENFKQVEYLLIHGTADDNVHFQQSAQISKALVDVGVDFQAMWYTDEDHGIASSTAHQHIYTHMSHFIKQCFSLP
modifications: left off: small tags and cut ends
notes: dipeptidyl peptidase IV, comparator enzyme
B2: DPP8: novel human dipeptidyl peptidase, amino acid sequence SEQ ID NO:1, 882 amino acids (protein, listed as Homo Sapiens)
chain: MAAAMETEQLGVEIFETADCEENIESQDRPKLEPFYVERYSWSQLKKLLADTRKYHGYMMAKAPHDFMFVKRNDPDGPHSDRIYYLAMSGENRENTLFYSEIPKTINRAAVLMLSWKPLLDLFQATLDYGMYSREEELLRERKRIGTVGIASYDYHQGSGTFLFQAGSGIYHVKDGGPQGFTQQPLRPNLVETSCPNIRMDPKLCPADPDWIAFIHSNDIWISNIVTREERRLTYVHNELANMEEDARSAGVATFVLQEEFDRYSGYWWCPKAETTPSGGKILRILYEENDESEVEIIHVTSPMLETRRADSFRYPKTGTANPKVTFKMSEIMIDAEGRIIDVIDKELIQPFEILFEGVEYIARAGWTPEGKYAWSILLDRSQTRLQIVLISPELFIPVEDDVMERQRLIESVPDSVTPLIIYEETTDIWINIHDIFHVFPQSHEEEIEFIFASECKTGFRHLYKITSILKESKYKRSSGGLPAPSDFKCPIKEEIAITSGEWEVLGRHGSNIQVDEVRRLVYFEGTKDSPLEHHLYVVSYVNPGEVTRLTDRGYSHSCCISQHCDFFISKYSNQKNPHCVSLYKLSSPEDDPTCKTKEFWATILDSAGPLPDYTPPEIFSFESTTGFTLYGMLYKPHDLQPGKKYPTVLFIYGGPQVQLVNNRFKGVKYFRLNTLASLGYVVVVIDNRGSCHRGLKFEGAFKYKMGQIEIDDQVEGLQYLASRYDFIDLDRVGIHGWSYGGYLSLMALMQRSDIFRVAIAGAPVTLWIFYDTGYTERYMGHPDQNEQGYYLGSVAMQAEKFPSEPNRLLLLHGFLDENVHFAHTSILLSFLVRAGKPYDLQIYPQERHSIRVPESGEHYELHLLHYLQENLGSRIAALKVI

Key:
[1] = molecular target: DPPIV (Homo sapiens, UniProt P27487); conditions: references [43,44]; cited from earlier work
[2] = molecular target: T1, DPP8 (Homo sapiens, UniProt Q6V1X1); assay: pH-dependence of DPP8 enzyme activity; type: biochemical
T1 construct: the full length DPP8 cDNA of 3.1 kb was cloned into the Xba I site of pcDNA3.1A/V5/His expression vector; expressed in transfected cells; host or cells: COS-7 (monkey kidney fibroblast) cells; clarified sonicated cell extract
Protocol: FIG. 7. DPP8 enzyme activity. (A) pH-dependence of DPP8 enzyme activity. (B) DPP8 and DPPIV enzyme kinetics. Means +/− SD of absorbance change per minute, multiplied by 1000 are shown. Curve fitting assumed Michaelis-Menten kinetics.
Enzyme assays were performed as described previously. Either clarified cell extract from 1×10^4 sonicated COS-7 cells or purified protein derived from 1×10^5 cells was incubated with substrate in 70 μL phosphate buffer, pH 7.4, for 30 min at 37° C., except where otherwise indicated. The specific DPPIV substrates, Gly-Pro-toluenesulfonate, H-Gly-Pro-p-nitroanilide (NA)/HCl (Sigma, St Louis, Mo., USA) and Gly-Pro-7-amino-4-trifluromethylcoumarin (Calbiochem, San Diego, Calif., USA) were tested. Other substrates tested were H-Ala-Pro-pNA/HCl, H-Arg-Pro-pNA acetate salt, H-Lys-Ala-pNA.2HCl, H-Asp-Pro-pNA, H-Ala-Ala-pNA/HCl, H-Ala-Ala-Pro-pNA/HCl, H-Ala-Ala-Phe-pNA, succinyl-Ala-Pro-pNA, H-Ala-Phe-Pro-pNA and Z-Ala-Pro-p-NA from Bachem (Switzerland). H-Ala-Pro-4-methoxyβNA/HCl, Z-Lys-Pro-4-methoxyβNAformate salt, H-Lys-Pro-4-methoxyβNA/HCl, Z-Ala-Pro-4-methoxyβNA, H-Gly-Pro-βNA and H-His-Ser-4-methoxyβNAacetate salt (Bachem) were tested for their ability to stain unfixed transfected cells. All inhibitors were (see Table 2) incubated with each purified enzyme in phosphate buffer, pH 7.4, for 15 min before the addition of substrate. […]

Molecule | pH optimum of enzyme activity [1] | pH optimum of enzyme activity [2]
B1 | 7.8 | 
B2 |  | 7.4
